Two substances from patent publication US6586187B1, “Methods for solid phase combinatorial synthesis of integrin inhibitors” (Wyeth, priority 1999, dated 2003) can be followed below.

Positions of bridges follow the written chain, without caps; N, C: chain ends. No end group written: not given here.

The target in test [1] is Vitronectin Receptor (αvβ3) (Homo sapiens, UniProt P05106+P06756). Kind of test: Vitronectin Receptor (αvβ3) Binding Assay. The settings on record: at 100 μM; 125I-Echistatin, 512P5 cell membranes.
Sequence of Vitronectin Receptor (αvβ3) (P06756 31-889 limits assumed): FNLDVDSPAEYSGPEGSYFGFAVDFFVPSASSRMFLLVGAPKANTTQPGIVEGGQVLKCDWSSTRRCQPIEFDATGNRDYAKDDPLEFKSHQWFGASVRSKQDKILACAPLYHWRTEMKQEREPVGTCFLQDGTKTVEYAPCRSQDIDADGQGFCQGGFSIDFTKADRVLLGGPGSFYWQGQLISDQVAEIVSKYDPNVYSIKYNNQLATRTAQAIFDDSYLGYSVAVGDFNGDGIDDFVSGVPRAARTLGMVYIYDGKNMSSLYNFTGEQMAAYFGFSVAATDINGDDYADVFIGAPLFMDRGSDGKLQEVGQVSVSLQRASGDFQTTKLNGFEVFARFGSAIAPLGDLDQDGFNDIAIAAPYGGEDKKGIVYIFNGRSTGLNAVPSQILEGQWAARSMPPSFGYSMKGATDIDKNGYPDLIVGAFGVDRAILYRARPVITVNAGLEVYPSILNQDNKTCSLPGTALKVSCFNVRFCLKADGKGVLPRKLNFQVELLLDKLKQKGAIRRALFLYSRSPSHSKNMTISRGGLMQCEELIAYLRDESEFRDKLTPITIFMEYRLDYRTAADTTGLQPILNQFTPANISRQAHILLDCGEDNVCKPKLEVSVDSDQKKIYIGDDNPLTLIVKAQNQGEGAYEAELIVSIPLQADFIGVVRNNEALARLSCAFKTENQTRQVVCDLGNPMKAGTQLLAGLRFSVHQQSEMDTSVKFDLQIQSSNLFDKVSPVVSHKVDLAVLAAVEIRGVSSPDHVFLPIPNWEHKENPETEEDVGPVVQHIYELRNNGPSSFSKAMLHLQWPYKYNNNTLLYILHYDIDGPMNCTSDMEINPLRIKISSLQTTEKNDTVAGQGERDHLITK
Sequence of Vitronectin Receptor (αvβ3) (P06756 891-1048 limits assumed): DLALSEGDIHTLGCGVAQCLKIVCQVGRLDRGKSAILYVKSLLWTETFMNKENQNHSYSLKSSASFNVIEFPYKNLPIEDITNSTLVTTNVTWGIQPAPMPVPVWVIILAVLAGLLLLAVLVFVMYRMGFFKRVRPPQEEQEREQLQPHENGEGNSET
Sequence of Vitronectin Receptor (αvβ3) (P05106 27-788): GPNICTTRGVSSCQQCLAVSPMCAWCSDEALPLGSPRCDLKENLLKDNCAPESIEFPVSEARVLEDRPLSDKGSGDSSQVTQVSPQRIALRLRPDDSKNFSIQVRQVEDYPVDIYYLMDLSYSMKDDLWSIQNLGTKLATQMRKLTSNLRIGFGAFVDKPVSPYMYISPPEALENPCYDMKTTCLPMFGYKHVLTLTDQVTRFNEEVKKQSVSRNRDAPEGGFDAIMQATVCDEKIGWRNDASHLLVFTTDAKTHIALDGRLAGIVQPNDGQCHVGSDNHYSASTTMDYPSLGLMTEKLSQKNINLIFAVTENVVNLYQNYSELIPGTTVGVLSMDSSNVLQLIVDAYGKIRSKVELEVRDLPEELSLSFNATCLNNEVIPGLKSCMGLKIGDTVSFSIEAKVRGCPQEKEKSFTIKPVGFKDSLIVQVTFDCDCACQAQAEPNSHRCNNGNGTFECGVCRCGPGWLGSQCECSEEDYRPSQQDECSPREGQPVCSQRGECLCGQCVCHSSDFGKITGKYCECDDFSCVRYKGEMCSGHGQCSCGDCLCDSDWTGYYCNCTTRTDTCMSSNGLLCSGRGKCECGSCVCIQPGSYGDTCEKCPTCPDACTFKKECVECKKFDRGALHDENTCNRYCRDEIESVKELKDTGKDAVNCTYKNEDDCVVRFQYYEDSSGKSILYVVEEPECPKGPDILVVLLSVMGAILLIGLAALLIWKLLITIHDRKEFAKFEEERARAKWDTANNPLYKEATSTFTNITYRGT
The subject of the next test is osteoclasts. Kind of test: Osteoclast Pitting Assay. The class given is cell-based. The conditions noted are these: neonatal rat osteoclasts on bovine cortical bone slices. On the procedure:
The assay is conduct ed as described in Murrills and Dempster (1990) Bone 11:333-344. Briefly, 4×4×0.2 mm slices of devitalized bovine cortical bone are numbered, placed in the wells of 96-well culture plates and wetted with 100 ul of Medium 199 containing Hanks salts, 10 mM HEPES, pH 7.0 (Medium 199/Hanks). Bone cell suspensions containing osteoclasts are prepared by mincing the long bones of neonatal rats (Sprague-Dawley , 4-6 days old) in Medium 199/Hanks. 100 uL of the suspension are then plated onto each slice and incubated 30 minutes to allow osteoclasts to adhere. The slices are rinsed to remove non-adherent cells and incubated 24 h in Medium 199 containing Earle's salts, 10 mM HEPES and 0.7 g/L NaHCO3, which equilibrates at pH 6.9 in a 5% CO2 atmosphere. At this pH the adherent osteoclasts excavate an adequate number of resorption pits for assay purposes. Slices are fixed in 2.5% glutaraldehyde and osteoclasts counted following tartrate-resistant acid phosphatase staining. […] Resorption pits are quantified by manually counting.
The experiments are conducted according to a block design with osteoclasts from each animal exposed to each treatment. […] Several parameters are recorded on a “per slice” basis: number of pits, number of osteoclasts, number of pits per osteoclast, number of fibroblast-like bone cells. […] IC50s are calculated for active compounds using dose-response curves.

Consider “GRGESP: reference peptide, structure given by standard single letter designation for amino acids”, for which the “ability to inhibit avb3 binding” value in test [1] was “inactive at 100 μM”. Regarding “Calcitonin: reference compound of the osteoclast pitting assay; used as anti-resorptive in the clinic (CGNLSTCMLGTYTQDLNKFHTFPQTSIGVGAP-NH2; disulfide 1-7; ends not checked; UniProt P01257 85-116, looked up)”, in the test on osteoclasts, the osteoclast inhibitory activity entry is recorded as “significant osteoclast inhibitory activity”.
